Legend:
Conditions in all cases: protein: commercial; label: 5' TEX615 (Texas Red) for FA; FAM for APCE; single strand
[1] = biological target: T1, CA125 (Cancer Antigen 125, mucin glycoprotein) (human, UniProt Q8WXI7 1-14451); assay: fluorescence anisotropy; heat cycled with Mg2+ (5 mM in Results; TGKM is 1 mM in Methods); FA: 100 nM aptamer heat cycled in TGKM (25 mM Tris, 192 mM glycine, 5 mM KH2PO4, 1 mM MgCl2, pH 8.3), CA125 0-2000 U/mL in PBS, 0.13 mg/mL BSA, 90 min RT, read
[2] = biological target: T1, CA125 (Cancer Antigen 125, mucin …); assay: affinity probe capillary electrophoresis; TGKM (1 mM Mg2+); FA: 100 nM aptamer heat cycled in TGKM (25 mM Tris, 192 mM glycine, 5 mM KH2PO4, 1 mM MgCl2, pH 8.3), CA125 0-2000 U/mL in PBS, 0.13 mg/mL BSA, 90 min RT, read
[3] = biological target: T1, CA125 (Cancer Antigen 125, mucin …); assay: fluorescence anisotropy; heat cycled in PBS without Mg2+; FA: 100 nM aptamer heat cycled in TGKM (25 mM Tris, 192 mM glycine, 5 mM KH2PO4, 1 mM MgCl2, pH 8.3), CA125 0-2000 U/mL in PBS, 0.13 mg/mL BSA, 90 min RT, read
[4] = biological target: T1, CA125 (Cancer Antigen 125, mucin …); assay: affinity probe capillary electrophoresis; heat cycled in TE without Mg2+; TGK run buffer; FA: 100 nM aptamer heat cycled in TGKM (25 mM Tris, 192 mM glycine, 5 mM KH2PO4, 1 mM MgCl2, pH 8.3), CA125 0-2000 U/mL in PBS, 0.13 mg/mL BSA, 90 min RT, read
[5] = biological target: T1, CA125 (Cancer Antigen 125, mucin …); assay: fluorescence anisotropy; FA: 100 nM aptamer heat cycled in TGKM (25 mM Tris, 192 mM glycine, 5 mM KH2PO4, 1 mM MgCl2, pH 8.3), CA125 0-2000 U/mL in PBS, 0.13 mg/mL BSA, 90 min RT, read

B1: CA125_1 (CA125_1_NP, without primer regions) (ssDNA)
DNA: ACTAGCTCCGATCTTTCTTATCTAC
- Kd [1]: 207 ± 109 U/mL
- Kd [2]: 80 ± 38 U/mL

B2: CA125_12 (CA125_12_NP, without primer regions) (ssDNA)
DNA: TGCCTTATTACTCTCTCCTGTTAAC
- Kd [3]: 118 ± 123 U/mL
- Kd [4]: 131 ± 93 U/mL

B3: CA125_3 (without primer regions) (ssDNA)
DNA: TTCAATATTACTTATCTTTTTTTTT
- binding result [5]: no binding

B4: CA125_2 (without primer regions) (ssDNA)
DNA: CACTCTTTCATTTTATTTATAATTAT
- binding result [5]: no binding
